± gives the uncertainty stated by the source.

Among the data in the supplement of paper PMC12042874 are amyloid nucleation score values, retold here.

A short description of the data set: amyloid nucleation score (Sup35N fusion, yeast selection) (log enrichment); library NNK3; higher = more nucleation; inactive = no reads after selection. The essentials: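 Using DiMSum, nucleation scores were taken as the log enrichment of output over input reads, centred on the mode score of non-aggregating sequences. The input and output reads came from Illumina sequencing of plasmid inserts, with sequences under 100 input reads excluded. The yeast were psi-negative, expressed Sup35N fused to peptides of 20 random codons, were induced with 100 μM copper sulfate for 24 hours, and were grown 7 days at 30°C on medium lacking adenine and uracil.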
As to ATFIFSDRQSHIHLYSNTQY, the amyloid nucleation score entry was “inactive”. Then RALKRFYNVIFYFRSYVPVS, with “inactive”; and NEVVQSLTRSIFRRYSKSAM, with 0.129 ± 0.98. On to LVALKSHDT, for which the amyloid nucleation score entry was “inactive”. Next, KFKENMYLTYSCLHKVIMRF: “inactive”; IFCST: “inactive”. With NLGLQDFNCNWGFTYGGLTK, the amyloid nucleation score entry was “inactive”.

In the case of ICILADEYLMCGYGYFHFDY, the amyloid nucleation score result is “inactive”. Next, LSVCVRPWRNKTDVVGNGNK: “inactive”; VPWSLCDD: 0.508 ± 0.12; YFKNGNALCKAFKKRISRKD: “inactive”.

In the case of NPLCTSYNQHPRGYHALTYN, the amyloid nucleation score result was “inactive”. For the substance DLSVWRALYNGLLQRASH, the amyloid nucleation score entry is “inactive”. WPIATTMSKGVCVRRVRGRD displayed an amyloid nucleation score of -0.411 ± 0.69. In the case of WCGQWWLLASGVQSFQCCVY, the amyloid nucleation score turned out to be 1.39 ± 0.13. Turning to KLGMSPSSLYSPAR, the amyloid nucleation score result was “inactive”.

As for SRLDALLMKLCFVICLRILK, the amyloid nucleation score entry is “inactive”.

Take SAKCTKEFYSNASKYFNSYL: the amyloid nucleation score entry is “inactive”. Then VACHRS, with “inactive”; and YVIYFSN, with -0.389 ± 0.93.

In the case of TFLMAYSWSCRQRNCKGFIY, the amyloid nucleation score result was “inactive”. For the substance RADFLPVKNVMRFRCEFWKR, the amyloid nucleation score result is “inactive”. Take RHYKLGGSGTCDVSYGSCYD: the amyloid nucleation score result is “inactive”. The substance FVYSCNC yielded an amyloid nucleation score of 2.34 ± 0.08. As to NENTNLIRLNGTDMRAYKLW, the amyloid nucleation score entry is “inactive”.

With LFYLGIYDFDGNW, the amyloid nucleation score entry was “inactive”. As for PSSIKRVL, the amyloid nucleation score is -0.33 ± 0.8. TFSASAVFTYDKGAPPLLEG had an amyloid nucleation score of 0.999 ± 0.17. The substance TMCCACVFLSSSGWEFNYGL yielded an amyloid nucleation score of 2.35 ± 0.081. Next, FCTGWSNGLVNHVDYKKGRN: “inactive”; SKWSTEFLTCHT: “inactive”; HFSLGLVMYLCSLGNVRP: 1.47 ± 0.11.

Turning to LCWVNQVREMGRWNTGVQSG, the amyloid nucleation score result is “inactive”.

Take VYCFV: the amyloid nucleation score result is “inactive”.

For the substance LTLCNPPTTRRTNATFLHCL, the amyloid nucleation score entry is “inactive”. Then FDWIQDHSQCGIIFTCVKLG, with “inactive”. For RALMGLVIKPKMSNTNLLDY, the amyloid nucleation score entry was “inactive”. Next, SFRFVSLVLFAVNDNYGRCW: 1.61 ± 0.13; FKYYRSYYPYICLKSVI: “inactive”; AGTKSLRNYGWCLYDGGFYH: “inactive”.

On to CEYCFGMTSLTAWWCYVLRC, for which the amyloid nucleation score entry is “inactive”. LWVYAPFDSK: the amyloid nucleation score entry was “inactive”. Substance LMFNGILNQCSVMYLNRIYK displayed an amyloid nucleation score of 2.97 ± 0.081. With FDGVGYATSIMEGNDSG, the amyloid nucleation score entry was “inactive”. Then MCMLIYCYAQSLVMKMDSHY, with “inactive”; and GVKGFQRQKRIFFGFCEFKV, with “inactive”; and VSALSGGFMENCCQSNFLTP, with “inactive”. Turning to YIAFCSRDSFRLVMRHNSGI, the amyloid nucleation score entry was “inactive”. DRHCLSL came in with an amyloid nucleation score of 0.582 ± 0.17. In the case of CNILIISTTLTPKITLTFYC, the amyloid nucleation score stood at 1.64 ± 0.13. Then VGILLFFYLTNVEQAVTFVR, with “inactive”; and DMFVECRLISFNFTFIRVLI, with “inactive”. FAVQCWKAGVAKNYGMHFVC: the amyloid nucleation score result was “inactive”. For the substance LLIDNVCSNIARVMHKVWLW, the amyloid nucleation score entry was “inactive”. As to QIYSFFIWIEKTGVCRWLWA, the amyloid nucleation score result was “inactive”. For the substance MGGELCY, the amyloid nucleation score entry is “inactive”.

In the case of SIVICS, the amyloid nucleation score result is “inactive”.

In the case of IYSNSPDRPEFHCNSRCGDG, the amyloid nucleation score result was “inactive”. Take KSEFSRSHWESDD: the amyloid nucleation score entry is “inactive”.

RVKVSYASYARK came in with an amyloid nucleation score of 1.49 ± 0.12.

As for VCYVKYSSLLCMNLGIRHRT, the amyloid nucleation score entry is “inactive”.

FSRGLNHYNLYNFGGLCICT gave an amyloid nucleation score of 2.91 ± 0.07. CRVWEDDFLSNRSGLVRHLT: the amyloid nucleation score entry was “inactive”. Regarding VVCMDLCFLAGSSMSDLDGC, the amyloid nucleation score entry was “inactive”. With SFVKWVKNQHF, the amyloid nucleation score result was “inactive”. For the substance CRVLDFSFSYFGMIFKLGTI, the amyloid nucleation score result is “inactive”. As for YIRLGWNVSWMLSSSEYVSH, the amyloid nucleation score was determined as 0.853 ± 0.12. For MYWLHYKVHNYNSCVI, the amyloid nucleation score entry was “inactive”. Then SLSLNIQGSNYFLHIVNIGR, with “inactive”; and PLRKSGQPSYAMPTRHARCI, with “inactive”; and PQTWVTWKIWYLGFGVAVGV, with “inactive”.

Consider LENFRCPVEGAVQERFGANL, for which the amyloid nucleation score result is “inactive”.

Regarding LHPLYRFSANSSKDLFTSRT, the amyloid nucleation score result was “inactive”. Consider SVHPGTRG, for which the amyloid nucleation score entry is “inactive”. Next, FCEDSRMSYKFYVSCIFAHS: 0.636 ± 0.14; SNCSSWSSPV: “inactive”; RKTRDSCTMGSNTTWRVIFC: 0.158 ± 0.49. Consider CAAIRGKL, for which the amyloid nucleation score entry is “inactive”. Then VRYWTTPVL, with “inactive”; and TLSCTKVTP, with “inactive”. For CYWIASRLFTKLSNYLSISG, the amyloid nucleation score entry was “inactive”.

Regarding GRSWVLV, the amyloid nucleation score result was “inactive”.

In the case of LDLDVDNVSSDGKTWMGLV, the amyloid nucleation score entry was “inactive”.

As for SNGWFYFCFVSWWHSSFDGS, the amyloid nucleation score entry was “inactive”.

On to FFIDYIHTYRYESSASMS, for which the amyloid nucleation score entry is “inactive”.

Take SDCSGYLQ: the amyloid nucleation score result was “inactive”. In the case of LCPRFGEEWCC, the amyloid nucleation score entry is “inactive”. As for YRTRESGLY, the amyloid nucleation score is -0.425 ± 1.1. FYPTNGSGSRVLMHGNSMLC: the amyloid nucleation score result is “inactive”.

As for NLAMWMDSECLRVSN, the amyloid nucleation score result is “inactive”. For GCSRWCFGDTGIE, the amyloid nucleation score result was “inactive”. With KIKSLELMYDISERNF, the amyloid nucleation score result is “inactive”. Turning to RGGGQDDYTRFLGSLNDVPV, the amyloid nucleation score entry is “inactive”. YMLQVRCSVDLFVLDTMCFL: the amyloid nucleation score result was “inactive”. MGGICRASRCCGCPTGRNCL yielded an amyloid nucleation score of 0.665 ± 0.27.

Turning to LGHVCILVQGGSKVRPTYGS, the amyloid nucleation score entry is “inactive”. Substance FVSLALGFGILSFYKDRLWD came in with an amyloid nucleation score of 0.598 ± 0.33. With LNPTAYYVVPLVLALAWISH, the amyloid nucleation score entry is “inactive”. For the substance ASVPAN, the amyloid nucleation score entry was “inactive”.

For the substance QQMGYGKADSMFTSLVVYTM, the amyloid nucleation score result was “inactive”. Substance LRWSGFIGDAYGYLFKEWGQ yielded an amyloid nucleation score of 0.145 ± 0.33. As to EVRRRDLYLWKASETLLRLL, the amyloid nucleation score entry was “inactive”. ILYFDVTISV: the amyloid nucleation score result is “inactive”. Regarding SCVDPVRWLRGASF, the amyloid nucleation score result is “inactive”. For the substance QRCCP, the amyloid nucleation score entry was “inactive”. Turning to VVRLWE, the amyloid nucleation score result is “inactive”. Regarding FKKCVDLKHYNVSMDVRCVL, the amyloid nucleation score result is “inactive”. With FYSFWYPFTVSAMRLYWCSW, the amyloid nucleation score entry is “inactive”. Next, SDSFSGPVKEPRYWGSQ: “inactive”. Next, SPRQHARCRTLTLTRTLRPM: “inactive”; VLFFSAYWMFQKVGVLVPSK: “inactive”; GWLLRCVSTLGGLKTLLC: “inactive”. Next, LAVYSSINFSRNGGSLTWTI: “inactive”; SFECDRYYFSWDGFMSGLT: “inactive”; LWPAAQLLLKRE: “inactive”. With LVLYCF, the amyloid nucleation score result was “inactive”. For the substance SRKIFEGTIRIRLTDSASFS, the amyloid nucleation score result was “inactive”. VLCCANKYSFTNQQSGSASE yielded an amyloid nucleation score of 0.952 ± 0.1. Then FLGSLVSLRCKWFVAF, with 0.292 ± 0.75; and VASVWLDIPMYLFSQLRTKT, with “inactive”; and QFCSSYWYQGTAYCLLPIAT, with “inactive”. As to SNVVSSI, the amyloid nucleation score result was “inactive”. For the substance CINIGVMDEWGVAVTLLVKN, the amyloid nucleation score entry was “inactive”. Take WCDLRFISWSFSVFWCV: the amyloid nucleation score result is “inactive”. Substance WVDFTTWLKFVFRSSIHYLL had an amyloid nucleation score of 0.012 ± 0.68.

Regarding FLNFSGLPGFVCPVIPSHYV, the amyloid nucleation score entry is “inactive”. Next, LKFLLRNILVRYYMDVGPVS: “inactive”; MRLMEQYFICCVM: 1.06 ± 0.17. Consider NTVTHR, for which the amyloid nucleation score entry was “inactive”. Regarding VDQHGFATKGPVLSKVIGHS, the amyloid nucleation score entry is “inactive”. For the substance TLLVCNMWNFSRNIMVHIGV, the amyloid nucleation score entry is “inactive”.
